Here are results for 2 substances from paper PMC7261172, “Peptides containing the PCNA interacting motif APIM bind to the β-clamp and inhibit bacterial growth and mutagenesis” (Nucleic Acids Research, 2020).

pKd: −log10 of the molar value.

The target in experiment [1] is E. coli β-clamp, wild type, His-tagged (UniProt P0A988). The experiment is described as follows: SPR. Particulars: peak response at the end of the last (highest) peptide injection, about 1130 s; concentrations not given; parent: est. 140; read off a plot.
Experiment [2] deals with β-clamp (Escherichia coli) (UniProt P0A988). Particulars: cited from earlier work.

Turning to “Octamer APIM peptide RWLVK (Ac-MDRWLVKW) MDRALVKW (mutated APIM; W to A at peptide position 4 of MDRWLVKW)”, the response in experiment [1] worked out at 8 RU.
For orientation: pKd means the negative decadic logarithm of the Kd, by convention in mol/L. On to Pol III alpha C-terminal peptide, for which the pKd in experiment [2] was 5.70.
